# From patent publication US20190204338A1, “Methods for the Characterisation of Interaction Sites on Target Proteins” (Phylogica Limited, priority 2012, published 2019)
# Experiments:
# Notch = test: Heterologous reporter construct specificity test (Notch); assay type: cell-based; conditions: data not shown
# Text: (§1) Transfection of these Phylomers was not generally cytotoxic as assessed by cell viability using the Cell Titre Blue system (Promega) (data not shown). To initially assess their specificity for AP1 inhibition, we tested these hits against two heterologous reporter constructs designed to detect the activation of two distinct transcription factors, namely Notch and FOXO class Forkhead.
# FOXO class Forkhead = test: Heterologous reporter construct specificity test (FOXO class Forkhead); assay type: cell-based; conditions: data not shown
# Text: as §1
molecule,measurement,setting,value
"4G9: AP1-inhibitory Phylomer, SEQ ID NO: 6 (LKHRDYWVPL LYFFFVLITM ...), identified by phenotypic screening (protein, Protein fragment of unknown organism) LKHRDYWVPLLYFFFVLITMFWDLYCHSGQYLYEARSLLPFYLFPFLIAALRIGDIVVDTRCRNVENLGGFERSAESSRYVQLSLYERQWFRLRYRAYGGNLRCLAGDLVENWRLWKEVNSKAAKDIDGAVMLRFFLPPRDLARLVTLLAALIAVIATLIITLAIV",Effect on Notch reporter construct,Notch,generally inhibited all reporter constructs
same,Effect on FOXO class Forkhead reporter construct,FOXO class Forkhead,generally inhibited all reporter constructs
